Reference: patent US20070134236A1 (Biogen, published 2007)
Where a chain is given by its changes, count along the chain named. Values belong to the binder of their own block, whether it stands above or below them.

Columns and labels:
human MCP-4 = target: T1, human MCP-4 (human, UniProt Q99616 24-98, limits assumed); test: ELISA, purified mAb
T1 construct: also called hMCP-4
Experimental: (§1) ELISA specificity assays were performed using purified monoclonal antibodies to confirm the binding specificities of the supernatant MCP-specific monoclonal antibodies described above. Antibodies were purified by Protein A affinity column chromatography, according to standard methods known in the art.
(§2) ELISA was performed as previously described in Example 1. Briefly, MaxiSorp 384 well plates were coated with 15-20 μl antigen in PBS. Recombinant purified human antigens included: MCP-1, MCP-2, MCP-3, MCP-4, IL-8, eotaxin, murine MCP-1 (JE), murine MCP-3, murine MCP-5, and rat MCP-1. All antigens, including MCP-3, were immobilized. Plates were washed and purified monoclonal antibody (10 μg/ml) was added to each well and incubated for 1 hour at room temperature. Plates were washed and wells were incubated with 20 μl/well of a 1:25,000 dilution of goat anti-mouse IgG peroxidase conjugate (Jackson Catalog Number 515-036-003). Plates were incubated for 1 hour at room temperature, washed, and 20 μl/well of substrate (, tetramethylbenzidine, Jackson, Catalog Number 515-036-062) was added. Reaction was allowed to proceed and stopped by addition of 20 μl/well of 2M H₂SO₄. Antibodies 1A1 bound specifically to hMCP-1, hMCP-2, hMCP-3, and mMCP-1. Antibodies 11K2, 4N4, 5A13, 6D21, 615, and 7H1 bound specifically to hMCP-1, hMCP-2, hMCP-3, mMCP-1, mMCP-3, and mMCP-5.

human IL-8 = target: T2, human IL-8 (human, UniProt P10145 28-99, limits assumed); test: ELISA, purified mAb
T2 construct: also called hIL8
Experimental: as §1, §2

human eotaxin = target: T3, human eotaxin (human, UniProt P51671 24-97); test: ELISA, purified mAb
T3 construct: also called hEotaxin
Experimental: as §1, §2

human MCP-1 [1] = target: T4, human MCP-1 (human, UniProt P13500 24-99); test: KinExA, in solution
T4 construct: also called hMCP-1; huMCP-1
Experimental: (§3) Polymethylmethacrylate beads activated with NHS were coated with 10 μg recombinant human MCP-1 in 1 ml buffer. The beads were packed into a column in the KinExA instrument for each sample. This packed bead column is able to capture free MCP mAb or Fab flowed through the column. The amount of free mAb or Fab in solution was determined using a secondary goat anti-mouse heavy and light chain IgG-Cy5 conjugate.
(§4) A fixed amount of 11K2 mAb, 1A1 mAb, 11K2 Fab, or 1A1 Fab was incubated with various amounts of human MCP-1, MCP-2 or MCP-3 for three hours. The amount of uncomplexed free antibody remaining in solution was determined by flowing these mixtures over the MCP-1-loaded bead column and labeling with the Cy5 secondary antibody. The fluorescent signal was plotted against the MCP concentration and the affinity was determined using a quadratic curve fit

human MCP-2 [2] = target: T5, human MCP-2 (human, UniProt P80075 24-99); test: KinExA, in solution; intact bivalent mAb, not Fab
T5 construct: also called hMCP-2; huMCP-2
T5 sequence (looked up): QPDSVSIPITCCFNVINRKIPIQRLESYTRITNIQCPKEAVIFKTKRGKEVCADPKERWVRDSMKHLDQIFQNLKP
Experimental: as §3, §4

human DC-CK = target: T6, human DC-CK (human, UniProt P55774 21-89); test: ELISA, supernatant
T6 sequence (looked up): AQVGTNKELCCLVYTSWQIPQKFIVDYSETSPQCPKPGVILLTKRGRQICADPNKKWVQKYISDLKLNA
Experimental: (§5) MaxiSorp 384 well plates were coated with 15-20 μl antigen in PBS. Recombinant purified human antigens included: MCP-1, MCP-2, MCP-3, MCP-4, IL-8, eotaxin, fractalkine, Gcp-2, DC-CK (Gcp-2 and DC-CK are also chemokines). Plates were incubated with antigen for 2 hours at 37° C. or overnight at 4° C. Non-specific sites were blocked with 80 μl/well of 1% BSA/PBS for 1 hour at room temperature. Plates were washed and 15 μl of hybridoma supernatant was added to each well and incubated for 1 hour at room temperature. Plates were washed and wells were incubated with 20 μl/well of a 1:25 000 dilution of goat anti-mouse IgG peroxidase conjugate (Jackson Catalog Number 515-036-003). Plates were incubated for 1 hour at room temperature, washed, and 20 μl/well of substrate (TMB, tetramethylbenzidine, Jackson, Catalog Number 515-036-062) was added. Reaction was allowed to proceed and stopped by addition of 20 μl/well of 2M H₂SO₄. Reactive clones were picked for further analysis. Isotyping of hybridoma supernatants was performed by antigen-dependent ELISA. Briefly, wells were coated with 50 μl of human MCP-1 (5 μg/ml) for 1 hour at 37° C. Wells were washed 4 times and blocked with PBS/1% BSA. Isotyping of hybridoma supernatants was then performed using a mouse immunoglobulin screening/isotyping kit (Zymed Laboratories, San Francisco, —CA) as recommended by the manufacturer.

human Gcp-2 = human Gcp-2 (human, UniProt P80162 38-114, limits assumed); test: ELISA, supernatant
Experimental: as §5

human fractalkine = target: T7, human fractalkine (human, UniProt P78423 25-100, limits assumed); test: ELISA, supernatant
T7 sequence (looked up): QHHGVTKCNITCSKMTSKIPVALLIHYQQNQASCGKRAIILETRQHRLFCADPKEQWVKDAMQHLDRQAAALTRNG
Experimental: as §5

human MCP-2 [3] = target: T5, human MCP-2; test: KinExA, in solution; Fab, not intact mAb
human MCP-2 [4] = target: T5, human MCP-2; test: KinExA, in solution, Fab
Experimental: (§6) 1 ml of MCP-1 at a concentration of 10 μg/ml in NaHCO₃ was added to an amount of beads equivalent to 1 ml of the original slurry. The beads were rocked overnight at 4° C. Beads were spun down and washed once with 1M Tris, pH 8.0, then resuspended in 1M Tris pH 8.0 with 1% BSA, 0.02% azide. The beads were rocked at room temperature for one hour then stored at 4° C. in this buffer for the duration of the experiments.
(§7) The KinExA 3000 measures protein-protein interaction in solution, and is ideally suited for measuring affinities of antibodies to antigens. In the typical experiment, antigen (MCP) is immobilized on a bead, antibody is flowed over a column of these beads at a given concentration, and the antibody that binds to the beads is detected using a fluorescent secondary. Antibody at a fixed concentration is then incubated with different concentrations of antigen in solution and the amount of free antibody is measured by flowing the mixture over the bead column quickly enough that no re-equilibration occurs between solution and solid phase. The amount of antibody remaining free is plotted against the concentration of antigen added and the data are fit to a quadratic equation to determine the affinity of the interaction in solution.
(§8) In these experiments, the only difference to the typical experiment described above is that instead of using intact antibody, a Fab fragment of 11K2 was used. Earlier KimExA experiments using the intact murine 11K2 mAb binding to MCP-1 and MCP-2 gave biphasic curves that the software could not interpret. This may be due to these proteins acting as dimers, so to eliminate the dimer/dimer interaction we generated Fab fragments. The binding of the 11K2 Fab fragments to MCP-1 and MCP-2 produced curves that the KinExA software could fit.

human MCP-1 [5] = target: T4, human MCP-1; test: KinExA, in solution, Fab
Experimental: as §6, §7, §8

murine MCP-1 (JE) = target: T8, murine MCP-1 (JE) (mouse, UniProt P10148 24-148); test: ELISA on plate-coated murine MCP-1, anti-human IgG-HRP; y axis unlabelled, OD 405 nm per paragraph 382
T8 construct: also called mMCP-1 (JE); muMCP-1
Experimental: (§9) Binding specificities of chimeric 11K2 and the four versions of humanized 11K2 (H1-L1, H1-L2, H2-L1, and H2-L2) were determined by ELISA, according to the protocol described in Example 1.
(§10) ELISA plates (Corning, Inc. Cat#3369) were coated with 50 ng MCP-1 per well overnight at 4° C. Plates were washed then blocked with PBS/5% milk for 1.5 hrs at 25° C. Another wash was followed by incubation with the 11K2 mAbs (or 3G9 isotype control) at the concentrations indicated for 1 hr at 25° C. After washing, the plates were incubated with secondary antibody (anti-human IgG-HRP, Jackson Immunoresearch Cat#109-036-088) for 1 hr at 25° C. Plates were then washed and developed using the ABTS Peroxidase Substrate Kit (Vector Laboratories Cat#SK-4500). OD (405 nm) values were plotted as a function of 11K2 mAb concentration.

human MCP-1 [6] = target: T4, human MCP-1; test: ELISA on plate-coated human MCP-1, anti-human IgG-HRP; y axis unlabelled, OD 405 nm per paragraph 382
Experimental: as §9, §10

human MCP-2 [7] = target: T5, human MCP-2; test: KinExA, in solution
Experimental: as §3, §4

human MCP-2 [8] = target: T5, human MCP-2; test: ELISA on immobilised MCP-2, absorbance 450 nm
human MCP-3 = target: T9, human MCP-3 (human, UniProt P80098 24-99); test: ELISA
T9 construct: also called hMCP-3

B2: Fab fragment of murine 1A1 (Fab, V domains shown)
VH: EVQLQQSGAELVRSGASVKLSCTASGFNIKDNYMHWVKQRPEQGLEWIGWIDPENGDTEYAPKFQGKATMTADTSSNTAYLQLSSLTSEDTAVYYCNTWAYYGTSYGGFAYWGQGTTVTVSS
VL: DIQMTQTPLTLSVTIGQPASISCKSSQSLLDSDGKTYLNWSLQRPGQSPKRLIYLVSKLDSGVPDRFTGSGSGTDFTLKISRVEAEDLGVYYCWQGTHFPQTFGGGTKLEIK
notes: also called 1A1 Fab
Kd (human MCP-2 [3]): 0.32 nM
Kd (human MCP-1 [1]): 0.013 nM
Kd (human MCP-2 [4]): 0.32 nM
Kd (human MCP-1 [5]): 0.0129 nM

B3: chimeric 11K2 antibody (antibody, human IgG1, kappa, V domains shown)
VH: EVQLQQSGAELVKAGASVKLSCPASGLNIKDTYMHWVKQRPEQGLEWIGRIDPANGNTKFDPKFQGKATITADTSSNTAYLQLSSLTSEDTAVYYCARGVFGFFDYWGQGTTLTVSS
VL: DIQMTQSSSSFSVSLGDRVTITCKATEDIYNRLAWYQQKPGSAPRLLISGATSLETGVPSRFSGSGSGKDYTLSITSLQTEDVATYYCQQFWSAPYTFGGGTKLEIKR
notes: murine 11K2 variable domains with human IgG1 and kappa constant regions; also called Chimera; ch11K2
EC50 (read off the curve) (murine MCP-1 (JE)): ~0.02 µg/mL
EC50 (read off the curve) (human MCP-1 [6]): ~0.02 µg/mL

B5: humanized 11K2 H1-L1 (antibody, human IgG1, kappa, V domains shown)
VH: QVQLVQSGAEVKKPGSSVKVSCKASGLNIKDTYMHWVRQAPGQGLEWIGRIDPANGNTKFDPKFQGRATITADTSTSTAYMELSSLRSEDTAVYYCARGVFGFFDYWGQGTTVTVSS
VL: DIQMTQSPSSLSASVGDRVTITCKATEDIYNRLAWYQQKPGKAPKLLISGATSLETGVPSRFSGSGSGKDYTLTISSLQPEDFATYYCQQFWSAPYTFGGGTKVEIKR
notes: human IgG1 kappa; also called hu11K2
EC50 (read off the curve) (human MCP-2 [8]): ~0.3 µg/mL
binding result (murine MCP-1 (JE)): binds
EC50 (read off the curve) (human MCP-1 [6]): ~0.02 µg/mL
binding result (human MCP-3): no binding

B7: humanized 11K2 H1-L2 (antibody, human IgG1, V domains shown)
VH: B5 VH
VL: B5 VL with K69T
notes: human IgG1 kappa
EC50 (read off the curve) (human MCP-2 [8]): ~0.3 µg/mL
EC50 (read off the curve) (human MCP-1 [6]): ~0.02 µg/mL
binding result (human MCP-3): no binding

B8: humanized 11K2 H2-L1 (antibody, human IgG1, kappa, V domains shown)
VH: B5 VH with N28T, K30S, I48M, A68V
VL: B5 VL
notes: human IgG1 kappa
EC50 (read off the curve) (human MCP-2 [8]): ~0.2 µg/mL
binding result (murine MCP-1 (JE)): binds
EC50 (read off the curve) (human MCP-1 [6]): ~0.02 µg/mL
binding result (human MCP-3): no binding

Now from value to binder:

binding result (human MCP-4): no binding (tested: 10 µg/ml)
binding result (human IL-8): no binding (tested: 10 µg/ml)
binding result (human eotaxin): no binding (tested: 10 µg/ml)
Kd (human MCP-1 [1]): < 0.0007 nM
Kd (human MCP-2 [2]): 0.0012 nM
binding result (human DC-CK): no binding
binding result (human Gcp-2): no binding
binding result (human fractalkine): no binding
B1: mouse monoclonal antibody 1A1 (antibody, V domains shown)
VH: B2 VH
VL: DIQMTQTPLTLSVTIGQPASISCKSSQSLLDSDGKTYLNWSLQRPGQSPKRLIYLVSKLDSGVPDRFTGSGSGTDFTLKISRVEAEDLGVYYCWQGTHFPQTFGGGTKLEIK
notes: mouse IgG1; also called 1A1.1; mu1A1

binding result (human MCP-4): no binding (tested: 10 µg/ml)
binding result (human IL-8): no binding (tested: 10 µg/ml)
binding result (human eotaxin): no binding (tested: 10 µg/ml)
Kd (human MCP-2 [7]): 0.018 nM
Kd (human MCP-1 [1]): < 0.0004 nM
binding result (human DC-CK): no binding
binding result (human Gcp-2): no binding
binding result (human fractalkine): no binding
B4: mouse monoclonal antibody 11K2 (antibody, V domains shown)
VH: B3 VH
VL: DIQMTQSSSSFSVSLGDRVTITCKATEDIYNRLAWYQQKPGSAPRLLISGATSLETGVPSRFSGSGSGKDYTLSITSLQTEDVATYYCQQFWSAPYTFGGGTKLEIK
notes: mouse IgG1; also called 11K2.1; mu11K2

EC50 (read off the curve) (human MCP-2 [8]): ~0.3 µg/mL
EC50 (read off the curve) (human MCP-1 [6]): ~0.02 µg/mL
binding result (human MCP-3): no binding
B6: humanized 11K2 H2-L2 (antibody, human IgG1, V domains shown)
VH: B5 VH with N28T, K30S, I48M, A68V
VL: B5 VL with K69T
notes: human IgG1 kappa
